What was measured:
[1] = target: HLA-A*23:01; assay: IEDB peptide-MHC binding, purified MHC/competitive/radioactivity; filed as Kd, often an IC50 or EC50 that approximates it; ≥ and ≤ were set here for values at or beyond the usual limits of such assays
[2] = target: HLA-A*26:01; assay: as above
[3] = target: HLA-A*29:02; assay: as above
[4] = target: HLA-A*24:02; assay: as above
[5] = target: HLA-A*01:01; assay: as above
[6] = target: HLA-A*30:02; assay: as above
[7] = target: HLA-A*30:01; assay: as above
[8] = target: HLA-B*44:02; assay: as above; settings: source organism: Dengue virus 4 Philippines/H241/1956
[9] = target: HLA-A*01:01; assay: IEDB peptide-MHC binding, purified MHC/direct/fluorescence; filed as Kd, often an IC50 or EC50 that approximates it; ≥ and ≤ were set here for values at or beyond the usual limits of such assays; settings: source organism: Influenza A virus (A/Hong Kong/488/97(H5N1))
[10] = target: HLA-A*02:06; assay: IEDB peptide-MHC binding, purified MHC/competitive/radioactivity; filed as Kd, often an IC50 or EC50 that approximates it; ≥ and ≤ were set here for values at or beyond the usual limits of such assays
[11] = target: HLA-A*02:02; assay: as above; settings: source organism: Vaccinia virus WR
[12] = target: HLA-A*02:03; assay: as above; settings: source organism: Vaccinia virus WR
[13] = source organism: SARS coronavirus Tor2
[14] = source organism: Mammarenavirus machupoense
[15] = source organism: Dengue virus 2 Peru/IQT2913/1996
[16] = source organism: Dengue virus 1 Brazil/97-11/1997
[17] = source organism: Vaccinia virus WR
[18] = source organism: Dengue virus 4 Dominica/814669/1981
[19] = source organism: Dengue virus 4 Philippines/H241/1956
[20] = source organism: Lymphocytic choriomeningitis virus (strain Armstrong)
[21] = source organism: Dengue virus 3 Martinique/1243/1999
[22] = source organism: Dengue virus 2 Jamaica/1409/1983

Sequence: FSSRMYCSFY
- Kd [1, 13]: ≥ 42400 nM
- Kd [2, 13]: 23 nM
- Kd [3, 13]: 40.2 nM
- Kd [4, 13]: ≥ 43100 nM
- Kd [5, 13]: 2.72 nM
- Kd [6, 13]: 2.15 nM

Sequence: AESLVGFLFY
- Kd [1, 14]: ≥ 66200 nM
- Kd [2, 14]: ≥ 69700 nM
- Kd [3, 14]: 97.6 nM
- Kd [4, 14]: ≥ 70300 nM
- Kd [5, 14]: ≥ 52100 nM
- Kd [6, 14]: 450 nM

Sequence: FYTTTGIGY
- Kd [1, 13]: ≥ 60600 nM
- Kd [2, 13]: 153 nM
- Kd [3, 13]: ≥ 46200 nM
- Kd [4, 13]: ≥ 45800 nM
- Kd [5, 13]: 242 nM
- Kd [6, 13]: ≥ 93800 nM

Sequence: KARNTPFNM
- Kd [7, 15]: 169 nM

Sequence: YDQENPYRTW
- Kd [8]: 156 nM

Sequence: KVRSNAAIG
- Kd [7, 16]: 13.6 nM

Sequence: ITDFVGKTV
- Kd ([5]; source organism: Dengue virus 3 Singapore/8120/1995): ≥ 39700 nM

Sequence: SITLATGPLT
- Kd [7, 16]: 3930 nM

Sequence: HLRDQSIKI
- Kd [7, 17]: 15.2 nM

Sequence: YSQVNPLTL
- Kd [5, 16]: 1010 nM

Sequence: DFGSVGGLF
- Kd [4, 18]: 2640 nM

Sequence: ITTATRCPTQ
- Kd [7, 19]: 9440 nM

Sequence: EKMEALQRKY
- Kd ([2]; source organism: Dengue virus 2 16681-PDK53): 6380 nM

Sequence: GGMLVRNPLS
- Kd [7, 16]: 4270 nM

Sequence: DYFESFSSFF
- Kd [1, 20]: 4.72 nM
- Kd [3, 20]: 0.356 nM
- Kd [4, 20]: 11 nM

Sequence: LRFLAIPPTA
- Kd [7, 16]: 3130 nM

Sequence: LFSGVSWTM
- Kd [4, 16]: 449 nM

Sequence: NMDRAVKLY
- Kd [9]: 584 nM

Sequence: VTARWLWGFL
- Kd ([5]; source organism: Dengue virus 1 Singapore/S275/1990): 8660 nM

Sequence: GAKIIHRYA
- Kd [7, 17]: 118 nM

Sequence: QNYVCKHTY
- Kd [6, 21]: ≥ 76900 nM

Sequence: TFIRSTMPL
- Kd [1, 19]: 255 nM

Sequence: LTTRNGEPHM
- Kd [7, 22]: 13700 nM

Sequence: RSKNTIIIA
- Kd [7, 17]: 0.163 nM

Sequence: TSRNNHLPA
- Kd ([7]; source organism: Vaccinia virus Copenhagen): 15.2 nM

Sequence: FTDPASIAA
- Kd [5, 22]: 7.26 nM
- Kd [10, 22]: 32.6 nM

Sequence: CSRCLSLFY
- Kd [7, 17]: 22.1 nM

Sequence: RRRTAGMII
- Kd [7, 15]: 4830 nM

Sequence: RYMGEDGCWY
- Kd [4, 21]: 828 nM
- Kd [6, 21]: ≥ 69700 nM

Sequence: KVKNHIPNI
- Kd [7, 17]: 0.684 nM

Sequence: EKTQAIDGEF
- Kd [2, 18]: ≥ 69700 nM

Sequence: PAMSTYSDI
- Kd [11]: 18300 nM
- Kd [12]: ≥ 20600 nM
- Kd [10, 17]: ≥ 77100 nM
